Entries after “also recorded” stand apart in the source; their conditions may differ. Where two headings read alike, the source gives them in different places. Where no end group is shown, it is not given here. The star is where a group is joined. RhodamineB = CCN(CC)c1ccc2c(-c3ccccc3C(=O)*)c3ccc(=[N+](CC)CC)cc-3oc2c1
Assays:
Par-6 PDZ^156–255 = assay: 1H-15N HSQC NMR titration of PDZ^156–255 with peptide; assay type: binding, D. melanogaster; settings: 25 °C, 0.1–0.25 mM 15N-labeled protein, 90% H2O/10% D2O, pH 5.5
Par-6 = settings: Cdc42-GTP:Par-6; cited from earlier work
Crumbs CTD = Crumbs CTD (UniProt P10040); settings: cited from earlier work
Crumbs CTD, sequence (P10040 2110-2146): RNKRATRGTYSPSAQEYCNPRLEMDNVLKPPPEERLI

[1] = target: disulfide-stabilized Par-6 CRIB-PDZ (CRIB-PDZ^Q144C/L164C) (D. melanogaster); assay: ITC
Pals1 = Pals1 (UniProt Q8N3R9); settings: cited from earlier work
Pals1, sequence (Q8N3R9 whole entry, the tested form may be a part): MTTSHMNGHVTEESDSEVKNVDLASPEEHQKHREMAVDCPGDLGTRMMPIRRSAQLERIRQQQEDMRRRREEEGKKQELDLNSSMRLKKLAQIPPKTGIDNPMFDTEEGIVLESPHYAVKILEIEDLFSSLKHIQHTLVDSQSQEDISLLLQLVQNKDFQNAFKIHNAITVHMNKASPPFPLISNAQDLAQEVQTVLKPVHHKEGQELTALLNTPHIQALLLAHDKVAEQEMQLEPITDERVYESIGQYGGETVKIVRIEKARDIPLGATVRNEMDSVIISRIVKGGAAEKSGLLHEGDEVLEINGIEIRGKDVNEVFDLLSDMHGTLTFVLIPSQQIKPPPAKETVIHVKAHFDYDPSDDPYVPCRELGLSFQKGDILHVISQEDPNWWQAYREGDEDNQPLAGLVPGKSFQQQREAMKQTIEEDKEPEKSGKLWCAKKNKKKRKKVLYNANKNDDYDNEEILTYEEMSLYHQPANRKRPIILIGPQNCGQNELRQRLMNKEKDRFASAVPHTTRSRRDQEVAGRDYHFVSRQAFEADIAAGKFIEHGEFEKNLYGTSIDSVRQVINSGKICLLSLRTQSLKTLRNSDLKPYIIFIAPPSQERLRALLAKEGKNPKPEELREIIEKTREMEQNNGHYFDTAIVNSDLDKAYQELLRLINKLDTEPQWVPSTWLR

[2] = target: Par-6 PDZ domain (residues 156–255) (D. melanogaster) (UniProt O97111); assay: fluorescence polarisation
[3] = target: Par-6 CRIB-PDZ module (CRIB-PDZ^130–255) (D. melanogaster) (UniProt O97111); assay: fluorescence polarisation
[4] = target: disulfide-stabilized Par-6 CRIB-PDZ (CRIB-PDZ^Q144C/L164C) (D. melanogaster); assay: fluorescence polarisation
[5] = target: Par-6 CRIB-PDZ module (CRIB-PDZ^130–255) (D. melanogaster) (UniProt O97111); assay: fluorescence polarisation; remark: listed apart in the source
[6] = target: Cdc42:CRIB-PDZ^130–255 complex (Cdc42 loaded with GMPPNP) ( | D. melanogaster, UniProt P60953 1-191; O97111 130-255); assay: fluorescence polarisation

With LPPEERLI [LPPEERLI] the “HSQC titration behaviour / binding mode” value (Par-6 PDZ^156–255) was “Significant shifts were observed for many amino acids in and near the PDZ ligand binding cleft; also recorded: consistent with binding at a second, low affinity site”.

In the case of “Cdc42-GTP: monomeric GTPase Cdc42 bound to GTP; binds the CRIB module of Par-6”, the Kd (Par-6) is listed as about 0.05 µM and the binding energy (Par-6) is listed as ~ 10 kcal/mol.

For Pals1 PDZ-SH3-GK (from UniProt Q8N3R9), the Kd (Crumbs CTD) is listed as 0.1 µM.

For VKESLV peptide, the Kd [1] was 17 µM, the dH [1] was -3.4 kcal/mol and the stoichiometry N [1] was 1.09.

For Par-6 CRIB-PDZ (from UniProt Q9NPB6), the Kd (Pals1) is given as 6 µM.

B1: N-terminally Rhodamine B-labeled GEERLI peptide (peptide)
peptide: RhodamineB-GEERLI
In the case of B1, the Kd [2] is reported as 12 µM, the Kd [3] is reported as 7.3 µM and the Kd [4] is reported as 2.5 µM. It also gave a Kd [5] of 7.2 µM and a Kd [6] of 1.2 µM.

B2: modified Crumbs peptide lacking the proline residues (GEERLI) (peptide)
peptide: GEERLI
B2 gave a Kd [1] of 1.9 µM, a dH [1] of -7.21 kcal/mol and a stoichiometry N [1] of 1.05.

B3: N-terminally Rhodamine B-labeled VKESLV peptide (peptide)
peptide: RhodamineB-VKESLV
In the case of B3, the Kd [2] is reported as 72 µM, the Kd [3] is reported as 54 µM and the Kd [4] is reported as 13 µM. For the same molecule, the Kd [6] was 6 µM.

— PMC5433836 (Biochemistry, 2016)
